Publication PMC4865918, “Inhibition of PRL-2·CNNM3 Protein Complex Formation Decreases Breast Cancer Proliferation and Tumor Growth*” (The Journal of Biological Chemistry, 2016)

Molecular target: T1, His-PRL-2 (human, UniProt Q12974 1-167)
T1 construct: human PRL-2 (PTP4A2), 19-kDa construct; also called recombinant PRL-2; 19-kDa PRL-2 construct; source: Escherichia coli BL21, purified
T1 sequence (looked up): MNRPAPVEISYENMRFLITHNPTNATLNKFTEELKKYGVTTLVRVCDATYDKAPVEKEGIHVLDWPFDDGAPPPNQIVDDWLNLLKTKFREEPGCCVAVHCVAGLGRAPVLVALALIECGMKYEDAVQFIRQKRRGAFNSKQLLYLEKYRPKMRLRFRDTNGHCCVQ
Experiment: pull-down; in vitro; 20 ng GST-CBS on glutathione-Sepharose beads, equimolar His-PRL-2 (~10 ng), 4 °C 1 h; 150 mM NaCl, 20 mM Tris, 1% Triton-X, 5 mM 2-mercaptoethanol; without inhibitor (control)
Conditions: both partners purified

binding result: binds
B1: GST-CBS (Bateman module of human CNNM3, amino acids 302-452) (domain or fragment, UniProt Q8NE01 302-452, looked up)
chain: SDLSKGVLRCRTVEDVLTPLEDCFMLDASTVLDFGVLASIMQSGHTRIPVYEEERSNIVDMLYLKDLAFVDPEDCTPLSTITRFYNHPLHFVFNDTKLDAVLEEFKRGKSHLAIVQKVNNEGEGDPFYEVLGLVTLEDVIEEIIRSEILDE
notes: human CNNM3, Bateman module, amino acids 302-452; also called GST-2xCBS; CBS tandem domain of CNNM3; source: Escherichia coli BL21, purified
